Measurements published in the supplement of paper PMC9112550, “Optimization of the antimicrobial peptide Bac7 by deep mutational scanning” (BMC Biology, 2022).

test system: Escherichia coli TOP10; assay: shrunken log2 fold change of peptide-encoding DNA abundance (4.5 h post-induction vs induction); higher = less antimicrobial activity (less host growth inhibition); conditions: time post-induction: 4.5 h; library: site-saturation at positions 5, 18, 19, 20
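Note: peptides expressed intracellularly from a pBAD plasmid library in pooled LB shake-flask culture, induced with 0.3% L-arabinose, DNA abundance read by NGS, three biological replicates, DESeq2 with apeglm shrinkage.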

Sequence | shrunken log2 fold change
RRIRTRPPRLPRPRPRPAPHPRP | 0.22
RRIRTRPPRLPRPRPRPAQCPRP | 0.18
RRIRTRPPRLPRPRPRPAQEPRP | -0.00523
RRIRTRPPRLPRPRPRPAQHPRP | 0.0266
RRIRTRPPRLPRPRPRPAQLPRP | -0.216
RRIRTRPPRLPRPRPRPAQMPRP | 0.0652
RRIRTRPPRLPRPRPRPARCPRP | 0.324
RRIRTRPPRLPRPRPRPAREPRP | 0.44
RRIRTRPPRLPRPRPRPARYPRP | 0.189
RRIRTRPPRLPRPRPRPASHPRP | -0.42
RRIRTRPPRLPRPRPRPASKPRP | -0.05
RRIRTRPPRLPRPRPRPASQPRP | 0.0336
RRIRTRPPRLPRPRPRPASWPRP | 0.733
RRIRTRPPRLPRPRPRPATGPRP | -0.123
RRIRTRPPRLPRPRPRPAWTPRP | 0.101
RRIRTRPPRLPRPRPRPAYMPRP | -0.384
RRIRTRPPRLPRPRPRPCCFPRP | -0.114
RRIRTRPPRLPRPRPRPCCMPRP | -0.197
RRIRTRPPRLPRPRPRPCDHPRP | -0.0753
RRIRTRPPRLPRPRPRPCELPRP | -0.271
RRIRTRPPRLPRPRPRPCEWPRP | 0.013
RRIRTRPPRLPRPRPRPCFSPRP | -0.3
RRIRTRPPRLPRPRPRPCFYPRP | -0.351
RRIRTRPPRLPRPRPRPCGFPRP | 0.268
RRIRTRPPRLPRPRPRPCIAPRP | -0.226

Sequence | shrunken log2 fold change
RRIRTRPPRLPRPRPRPCIIPRP | -0.0804
RRIRTRPPRLPRPRPRPCKNPRP | -0.33
RRIRTRPPRLPRPRPRPCLIPRP | -0.0324
RRIRTRPPRLPRPRPRPCMLPRP | 0.0676
RRIRTRPPRLPRPRPRPCNAPRP | -0.228
RRIRTRPPRLPRPRPRPCPFPRP | -0.484
RRIRTRPPRLPRPRPRPCQEPRP | -0.0218
RRIRTRPPRLPRPRPRPCQMPRP | -0.267
RRIRTRPPRLPRPRPRPCQVPRP | -0.304
RRIRTRPPRLPRPRPRPCRHPRP | -0.101
RRIRTRPPRLPRPRPRPCRRPRP | -0.111
RRIRTRPPRLPRPRPRPCSDPRP | -0.104
RRIRTRPPRLPRPRPRPCSTPRP | -0.11
RRIRTRPPRLPRPRPRPCVQPRP | 0.0274
RRIRTRPPRLPRPRPRPCWCPRP | -0.0474
RRIRTRPPRLPRPRPRPCYYPRP | 0.0075
RRIRTRPPRLPRPRPRPDAMPRP | 0.248
RRIRTRPPRLPRPRPRPDCMPRP | -0.137
RRIRTRPPRLPRPRPRPDDNPRP | -0.195
RRIRTRPPRLPRPRPRPDGWPRP | 0.468
RRIRTRPPRLPRPRPRPDHDPRP | 0.0257
RRIRTRPPRLPRPRPRPDHHPRP | -0.474
RRIRTRPPRLPRPRPRPDHVPRP | -0.0634
RRIRTRPPRLPRPRPRPDILPRP | 0.109
RRIRTRPPRLPRPRPRPDKNPRP | -0.143

Sequence | shrunken log2 fold change
RRIRTRPPRLPRPRPRPDKSPRP | -0.0816
RRIRTRPPRLPRPRPRPDMGPRP | -0.0558
RRIRTRPPRLPRPRPRPDMQPRP | 1.96
RRIRTRPPRLPRPRPRPDRNPRP | -0.09
RRIRTRPPRLPRPRPRPDVWPRP | 0.33
RRIRTRPPRLPRPRPRPDWGPRP | 0.194
RRIRTRPPRLPRPRPRPDWWPRP | 0.016
RRIRTRPPRLPRPRPRPDWYPRP | -0.622
RRIRTRPPRLPRPRPRPDYRPRP | 0.0112
RRIRTRPPRLPRPRPRPEAMPRP | 0.0163
RRIRTRPPRLPRPRPRPEAPPRP | 0.139
RRIRTRPPRLPRPRPRPEEHPRP | 0.0062
RRIRTRPPRLPRPRPRPEENPRP | -0.0317
RRIRTRPPRLPRPRPRPEFHPRP | -0.351
RRIRTRPPRLPRPRPRPEFWPRP | 0.445
RRIRTRPPRLPRPRPRPEGWPRP | 0.688
RRIRTRPPRLPRPRPRPEHFPRP | -0.115
RRIRTRPPRLPRPRPRPEHGPRP | 0.0391
RRIRTRPPRLPRPRPRPEHKPRP | -0.0645
RRIRTRPPRLPRPRPRPEHPPRP | 0.716
RRIRTRPPRLPRPRPRPEHTPRP | -0.174
RRIRTRPPRLPRPRPRPEIGPRP | -0.103
RRIRTRPPRLPRPRPRPEKAPRP | 0.00451
RRIRTRPPRLPRPRPRPEKSPRP | 0.288
RRIRTRPPRLPRPRPRPELGPRP | 0.248

Sequence | shrunken log2 fold change
RRIRTRPPRLPRPRPRPELSPRP | -0.0448
RRIRTRPPRLPRPRPRPEMMPRP | -0.0411
RRIRTRPPRLPRPRPRPEMSPRP | -0.145
RRIRTRPPRLPRPRPRPENLPRP | -0.0254
RRIRTRPPRLPRPRPRPETSPRP | 0.199
RRIRTRPPRLPRPRPRPETYPRP | -0.275
RRIRTRPPRLPRPRPRPEVDPRP | 0.036
RRIRTRPPRLPRPRPRPEVVPRP | 0.292
RRIRTRPPRLPRPRPRPEWDPRP | 0.064
RRIRTRPPRLPRPRPRPEWKPRP | -0.076
RRIRTRPPRLPRPRPRPEYKPRP | 0.134
RRIRTRPPRLPRPRPRPFCKPRP | -0.132
RRIRTRPPRLPRPRPRPFDDPRP | 0.0564
RRIRTRPPRLPRPRPRPFEVPRP | -0.101
RRIRTRPPRLPRPRPRPFGSPRP | 0.0169
RRIRTRPPRLPRPRPRPFGVPRP | 0.0203
RRIRTRPPRLPRPRPRPFGWPRP | 0.189
RRIRTRPPRLPRPRPRPFHKPRP | 0.0244
RRIRTRPPRLPRPRPRPFLLPRP | -0.743
RRIRTRPPRLPRPRPRPFNPPRP | -1.37
RRIRTRPPRLPRPRPRPFPTPRP | 0.105
RRIRTRPPRLPRPRPRPFQKPRP | -0.0018
RRIRTRPPRLPRPRPRPFRIPRP | -0.0114
RRIRTRPPRLPRPRPRPFRNPRP | 0.0337
RRIRTRPPRLPRPRPRPFRSPRP | -0.144

Sequence | shrunken log2 fold change
RRIRTRPPRLPRPRPRPFSKPRP | 0.0087
RRIRTRPPRLPRPRPRPFTNPRP | -0.0559
RRIRTRPPRLPRPRPRPFVTPRP | -0.298
RRIRTRPPRLPRPRPRPFWVPRP | -0.0427
RRIRTRPPRLPRPRPRPFWYPRP | -0.374
RRIRTRPPRLPRPRPRPFYPPRP | -0.478
RRIRTRPPRLPRPRPRPGDEPRP | 0.195
RRIRTRPPRLPRPRPRPGDRPRP | 0.0976
RRIRTRPPRLPRPRPRPGEHPRP | -0.187
RRIRTRPPRLPRPRPRPGENPRP | 0.182
RRIRTRPPRLPRPRPRPGFQPRP | -0.0547
RRIRTRPPRLPRPRPRPGGAPRP | 0.38
RRIRTRPPRLPRPRPRPGGPPRP | 0.257
RRIRTRPPRLPRPRPRPGGTPRP | -0.00579
RRIRTRPPRLPRPRPRPGHFPRP | -0.215
RRIRTRPPRLPRPRPRPGHIPRP | -0.289
RRIRTRPPRLPRPRPRPGIHPRP | -0.158
RRIRTRPPRLPRPRPRPGIYPRP | -0.279
RRIRTRPPRLPRPRPRPGKEPRP | -0.00507
RRIRTRPPRLPRPRPRPGKGPRP | 0.0141
RRIRTRPPRLPRPRPRPGLCPRP | -0.00367
RRIRTRPPRLPRPRPRPGNQPRP | -0.0161
RRIRTRPPRLPRPRPRPGNVPRP | 0.0939
RRIRTRPPRLPRPRPRPGPLPRP | 0.185
RRIRTRPPRLPRPRPRPGPVPRP | 0.141

Sequence | shrunken log2 fold change
RRIRTRPPRLPRPRPRPGRGPRP | 0.605
RRIRTRPPRLPRPRPRPGSLPRP | -0.0994
RRIRTRPPRLPRPRPRPGTKPRP | -0.122
RRIRTRPPRLPRPRPRPGVRPRP | 0.272
RRIRTRPPRLPRPRPRPGVVPRP | 0.0177
RRIRTRPPRLPRPRPRPGWFPRP | 0.461
RRIRTRPPRLPRPRPRPGWLPRP | 0.445
RRIRTRPPRLPRPRPRPGYCPRP | -0.184
RRIRTRPPRLPRPRPRPGYQPRP | -0.0553
RRIRTRPPRLPRPRPRPGYTPRP | 0.0635
RRIRTRPPRLPRPRPRPHCHPRP | -0.0122
RRIRTRPPRLPRPRPRPHCSPRP | -0.0966
RRIRTRPPRLPRPRPRPHDNPRP | -0.574
RRIRTRPPRLPRPRPRPHETPRP | -0.00261
RRIRTRPPRLPRPRPRPHFAPRP | -0.227
RRIRTRPPRLPRPRPRPHFEPRP | -0.323
RRIRTRPPRLPRPRPRPHICPRP | -0.13
RRIRTRPPRLPRPRPRPHIWPRP | -0.103
RRIRTRPPRLPRPRPRPHKCPRP | 0.215
RRIRTRPPRLPRPRPRPHKDPRP | -0.973
RRIRTRPPRLPRPRPRPHLEPRP | -0.0891
RRIRTRPPRLPRPRPRPHLFPRP | -0.111
RRIRTRPPRLPRPRPRPHMAPRP | -0.123
RRIRTRPPRLPRPRPRPHNFPRP | -0.0359
RRIRTRPPRLPRPRPRPHNHPRP | -0.802
